From patent US20150065561A1 (GEORGIA STATE UNIVERSITY RESEARCH FOUNDATION, published 2015) come the findings set out here.

The assay concerns the target T1, CYLD (UniProt Q9NQC7 1-956, limits assumed).
T1 construct: also called deubiquitinase CYLD; cylindromatosis
T1 sequence (looked up): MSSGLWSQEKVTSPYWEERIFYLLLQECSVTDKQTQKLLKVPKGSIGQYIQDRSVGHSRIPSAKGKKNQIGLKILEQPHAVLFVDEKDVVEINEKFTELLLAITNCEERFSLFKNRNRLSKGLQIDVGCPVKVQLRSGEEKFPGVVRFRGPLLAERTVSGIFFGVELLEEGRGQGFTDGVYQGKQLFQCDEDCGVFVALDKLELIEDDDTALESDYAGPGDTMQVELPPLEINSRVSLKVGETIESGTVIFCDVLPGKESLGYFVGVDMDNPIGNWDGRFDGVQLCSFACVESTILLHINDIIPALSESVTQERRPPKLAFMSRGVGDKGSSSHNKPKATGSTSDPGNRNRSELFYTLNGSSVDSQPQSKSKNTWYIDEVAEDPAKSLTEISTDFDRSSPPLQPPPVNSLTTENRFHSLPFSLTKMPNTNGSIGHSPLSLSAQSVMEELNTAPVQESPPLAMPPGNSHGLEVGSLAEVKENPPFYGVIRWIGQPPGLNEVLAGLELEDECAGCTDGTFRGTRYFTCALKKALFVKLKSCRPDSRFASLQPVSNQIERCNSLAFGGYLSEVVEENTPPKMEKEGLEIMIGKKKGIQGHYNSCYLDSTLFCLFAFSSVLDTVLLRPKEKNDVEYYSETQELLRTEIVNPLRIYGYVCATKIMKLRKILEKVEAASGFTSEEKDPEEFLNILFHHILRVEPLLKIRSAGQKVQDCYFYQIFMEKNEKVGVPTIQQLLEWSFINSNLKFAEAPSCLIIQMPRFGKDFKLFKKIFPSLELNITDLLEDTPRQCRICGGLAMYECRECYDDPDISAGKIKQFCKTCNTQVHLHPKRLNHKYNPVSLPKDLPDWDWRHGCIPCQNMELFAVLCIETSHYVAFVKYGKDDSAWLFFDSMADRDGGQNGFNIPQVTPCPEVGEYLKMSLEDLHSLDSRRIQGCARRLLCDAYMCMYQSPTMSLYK
Description: co-immunoprecipitation.
Description: Western blot, immunoprecipitation and ubiquitination experiments were performed as follows. Western blots were performed using whole-cell extracts, separated on 8 or 10% SDS-PAGE gels, and transferred to polyvinylidine di& uoride membranes. The membrane was blocked with a solution of PBS containing 0.1% Tween 20 (PBS-T) and 5% BSA. The membrane was then incubated in a 1:2,000 dilution of a primary antibody in 5% BSA-PBS-T. After three washes in PBS-T, the membrane was incubated with 1:5,000 dilution of the corresponding secondary antibody in 3% non-fact skim milk-PBS-T. Respective proteins were visualized by using enhanced chemiluminescence detection reagents, according to the manufacturer's instructions. To conduct immunoprecipitation analysis, cell lysates were incubated with 1 μg of primary antibodies overnight, at 4° C., followed by 2-h incubation with protein A/G-agarose beads (Invitrogen). Immunoprecipitates were then suspended in a sample buffer, separated on 8% SDS-PAGE, transferred to polyvinylidine difluoride membrane, and detected by immunoblot analysis, as described above. […]

B1: CHIP (enzyme, UniProt Q9UNE7 1-303, looked up)
chain: MKGKEEKEGGARLGAGGGSPEKSPSAQELKEQGNRLFVGRKYPEAAACYGRAITRNPLVAVYYTNRALCYLKMQQHEQALADCRRALELDGQSVKAHFFLGQCQLEMESYDEAIANLQRAYSLAKEQRLNFGDDIPSALRIAKKKRWNSIEERRIHQESELHSYLSRLIAAERERELEECQRNHEGDEDDSHVRAQQACIEAKHDKYMADMDELFSQVDEKRKKRDIPDYLCGKISFELMREPCITPSGITYDRKDIEEHLQRVGHFDPVTRSPLTQEQLIPNLAMKEVIDAFISENGWVEDY
In the case of B1, the binding result was “no binding”.
